In patent publication US9314421B2, “Ultrasound-enhanced intrascleral delivery of macromolecules” (The Hong Kong University of Science and Technology, priority 2009, dated 2016):
“And” between values parts separate entries of the source, which are not always exact repeats. Identical values can stand only once.

Experiments:
[1] = with ultrasound; cited from earlier work
[2] = assay type: in vitro ADME, New Zealand White Rabbit
Protocol: The eyes of New Zealand White Rabbits (6-month to one-year-old) were enucleated immediately after the rabbits were sacrificed. The eyes were kept on ice prior to experiments and the time lag never exceeded 15 minutes to ensure tissue freshness. All the periocular tissues (muscles and conjunctiva) were removed and the optic nerve was sealed with Vaseline®. The eye was immersed in a container filled with 4 ml of 0.1% FITC-BSA or BBS+®. An ultrasound transducer with a probe size of 1 cm^2 (BTL-4000, BTL Industries, Inc., Clark, N.J.) was positioned a few millimeters above the sclera near the equator. The zone of ultrasound application was labeled with a marker. Ultrasound at a therapeutic frequency (1 MHz) and a low power input (0.5 W/cm^2) was applied for 30 seconds. The eye continued to be immersed in 0.1% FITC-BSA or BBS+® for different time intervals (5, 15, 30 and 60 minutes for 0.1% FITC-BSA; 15 minutes for BSS+®). All of the experiments were carried out at room temperature. The scleral surface temperature at the ultrasound application zone before and after treatment was measured using a thermocouple. Controls were performed by immersing the eyes for different time intervals without ultrasound application.
Immediately after the ex vivo experiments, the whole eye was washed and immersed in a mould filled with optimum cutting temperature medium (O.C.T) (Leica, Wetzlar, Germany), followed by quick-freezing in liquid nitrogen. 10 μm thick sections across the marked ultrasound application zone of the eye were cut using a cryostat (CM1850, Leica, Wetzlar, Germany). Polylysine-coated slides were used for collecting the tissue sections.
All images were acquired using a fluorescence microscope (BX 41, Olympus, Center Valley, Pa.). The image of the sclera was captured under optical mode, and FITC-BSA penetration into the sclera was captured under fluorescence mode (bandpass filter: 510-550 nm, dichroic mirror: 570 nm, barrier filter: 590 nm, exposure time: […]). The pictures shown in the FIGS. 15-17 were merged images of these two modes. The thickness of the sclera and the penetration distance of FITC-BSA were obtained using the software SPOT® (Diagnostic Instruments, Inc., MI, USA). For each experiment or control, 2 to 4 eyes from different rabbits were used. Three tissue sections were obtained from each eye and at least 20 measurements on the penetration distance were made in each eye. Only images showing intact sclera were used for measurement to avoid ambiguity.
In the first set of experiments, the parameters of the ultrasound used were set as follows: frequency: 1 MHz, power: 0.5 W/cm^2, application duration: 30 seconds, size of transducer: 1 cm^2. Freshly enucleated New Zealand White Rabbit eyes were used as an ex vivo eye model, and 65 kDa protein fluorescent albumin was used as the model macromolecule. Whole rabbit eyes were immersed in fluorescent albumin solution. Ultrasound was applied for 30 s and then the eyes were kept in fluorescent albumin for 5, 15 or 30 minutes. For the control experiment, the eyes were immersed in fluorescent albumin for 15 minutes without ultrasound application. The eyes were then flash frozen in OCT (Optimum Cutting Temperature) medium with liquid nitrogen and sectioned in cryostat for further investigation.
Briefly, the parameters of the ultrasound were set as follows: frequency: 1 MHz, power: 0.5 W/cm^2, application duration: 30 seconds, size of transducer: 1 cm^2. […]

[3] = Calculation of intrascleral diffusivity from penetration distance versus square root of time; assay type: in vitro ADME, New Zealand White Rabbit; conditions: for intrascleral diffusivity: 37° C.
Protocol: The one-dimensional diffusion model describing the penetration distance (L), diffusivity (D) and time of diffusion (t) is given by the equation below (23): L=√{square root over (2Dt)}. (1)
A plot of the penetration distance versus the square root of time yields a straight line. The diffusivity is calculated from the slope, which equals […].
The diffusivity measured at room temperature is converted to the value at 37° C. according to Stokes-Einstein equation, which gives
[formula] where D and η are diffusivity and viscosity respectively, with the temperature designated at the subscript. Since the experiment was conducted in dilute buffer solution, the viscosity of water is used. Histological Study

Compound: O=C([O-])c1ccccc1-c1c2ccc(=O)cc-2oc2cc([O-])ccc12.[Na+].[Na+] [sodium fluorescein]
- enhancement of delivery through the cornea versus passive diffusion [1]: ten times

Compound: FITC-BSA: 65 kDa protein fluorescent albumin used as the model macromolecule
- depth of intrascleral site reached [2]: about 110 μm
- increase in percentage of depth of protein penetration versus control [2]: 4 folds
- level of penetration (qualitative) [2]: failed to penetrate into the sclera
- penetration depth [2]: 15.8±5.7 μm
- penetration versus sample without 15-minute BSS+ pretreatment [2]: much lower
- increase in ocular diffusivity ([3]; 0.5 W/cm^2, 1 MHz ultrasound for 30 seconds): 2 folds
- intrascleral diffusivity ([3]; control without ultrasound): 3.90×10^−08 cm^2/sec
- intrascleral diffusivity ([3]; with ultrasound, first 15 min): 6.17×10^−8 cm^2/sec and 6.17×10^−08 cm^2/sec
- intrascleral diffusivity ([3]; with ultrasound, from 15 to 60 min): 4.18×10^−8 cm^2/sec
- increase in diffusivity by ultrasound treatment ([3]; first 15 minutes, ultrasound versus no ultrasound): 1.6 times
